# According to the RNAGym collection of RNA variant scans (doi:10.1093/nar/gkz1192):
# B1: CPEB3 Ribozyme (parent)
# chain: UAACAGGGGGCCACAGCAGAAGCGUUCACGUCGCAGCCCCUGUCAGAUUCUGGUGAAUCUGCGAAUUCUGCUGUAUAUCUC
# Variants of: B1
# Assay: self-cleavage, relative activity (ratio to wild type); higher = more cleavage; in vitro, sequencing
# Outline: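 For each CPEB3 ribozyme variant, relative activity is its cleaved/total read fraction divided by the unmutated ribozyme's. Barcoded error-prone PCR libraries were transcribed by T7 RNA polymerase (5 hours, 37°C) and held in DNase I for 15 min before an EDTA stop, with cleavage occurring throughout. Template-switching reverse transcription and Illumina sequencing were used to read the RNAs. A 5-read minimum applied, and results are the mean of three batches.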
row,Variant,self-cleavage
1,UAACAGGGGGCCACAGCAGAAGCGGUCACGUCGCAGCCCCUGUCAGAUUCUGGUGAAUUUGCGAAUUCUGCUGUAUAUCUC [U25G C59U],0.21
2,UAACAGGGGGCCACAGCAGAAGCGGUCACGUCGCAGCCCCUGUCAGAUUCUGGUGAAUCUGCGAAUUCUCCUGUAUAUCUC [U25G G70C],0.33
3,UAACAGGGGGCCACAGCAGAAGCGGUCACGUCGCAGCCCCUGUCAGAUUCUGGUGAAUCUGCGAAUUCUGCUGUAUAUCCC [U25G U80C],0.37
4,UAACAGGGGGCCACAGCAGAAGCGGUUACGUCGCAGCCCCUGUCAGAUUCUGGUGAAUCUGCGAAUUCUGCUGUAUAUCUC [U25G C27U],0.39
5,UAACAGGGGGCCACAGCAGAAGCGGUCACGUCGCAGCCCCUGUCAGAUUCUGGUGAAUCUGCGUAUUCUGCUGUAUAUCUC [U25G A64U],0.23
6,UAACAGGGGGCCACAGCAGAAGCGGUCACGUCGCAGCCCCUGUCAGAUUCUGGUGAAUCUGCGGAUUCUGCUGUAUAUCUC [U25G A64G],0.24
7,UAACAGGGGGCCACAGCAGAAGCGUACACGUCGCCGCCCCUGUCAGAUUCUGGUGAAUCUGCGAAUUCUGCUGUAUAUCUC [U26A A35C],0.65
8,UAACAGGGGGCCACAGCAGAAGCGUACACGUCGCGGCCCCUGUCAGAUUCUGGUGAAUCUGCGAAUUCUGCUGUAUAUCUC [U26A A35G],1.29
9,UAACAGGGGGCCACAGCAGAAGCGUACACGUCGCUGCCCCUGUCAGAUUCUGGUGAAUCUGCGAAUUCUGCUGUAUAUCUC [U26A A35U],0.38
10,UAACAGGGGGCCACAGCAGAAGCGGUCACGUCGCAGCCCCUGUCAGAUUCUGGUGAAUCUGCGAAUUCUGCUGGAUAUCUC [U25G U74G],0.37
11,UAACAGGGGGCCACAGCAGAAGCGGUCACGUCGCAGCCCCUGUCAGAUUCUGGUGAAUCUGCGAAUUCUGCUGCAUAUCUC [U25G U74C],0.52
12,UAACAGGGGGCCACAGCAGAAGCGGUCACGUCGCAGCCCCUGUCAGAUUCUGGUGAAUCCGCGAAUUCUGCUGUAUAUCUC [U25G U60C],0.24
13,UAACAGGGGGCCACAGCAGAAGCGGUCACGUCGCAGCCCCUGUCAGAUUCUGGUGAAUCAGCGAAUUCUGCUGUAUAUCUC [U25G U60A],0.19
14,UAACAGGGGGCCACAGCAGAAGCGGUCACGUCGCAGCCCCUGUCAGAUUCUGGUGAAUCUGCGAAUUCCGCUGUAUAUCUC [U25G U69C],0.24
15,UAACAGGGGGCCACAGCAGAAGCGGUCACGUCGCAGCCCCUGUCAGAUUCUGGUGAAUCUGCGAAUUCAGCUGUAUAUCUC [U25G U69A],0.15
16,UAACAGGGGGCCACAGCAGAAGCGGUCACGUCGCAGCCCCUGUCAGAUUCUGGUGGAUCUGCGAAUUCUGCUGUAUAUCUC [U25G A56G],0.4
17,UAACAGGGGGCCACAGCAGAAGCGUACACGUCGCAGCCCCUGUCAGUUUCUGGUGAAUCUGCGAAUUCUGCUGUAUAUCUC [U26A A47U],0.58
18,UAACAGGGGGCCACAGCAGAAGCGUACACGUCGCAGCCCCUGUCAGGUUCUGGUGAAUCUGCGAAUUCUGCUGUAUAUCUC [U26A A47G],0.84
19,UAACAGGGGGCCACAGCAGAAGCGUACGCGUCGCAGCCCCUGUCAGAUUCUGGUGAAUCUGCGAAUUCUGCUGUAUAUCUC [U26A A28G],0.38
20,UAACAGGGGGCCACAGCAGAAGCGUACUCGUCGCAGCCCCUGUCAGAUUCUGGUGAAUCUGCGAAUUCUGCUGUAUAUCUC [U26A A28U],0.61
21,UAACAGGGGGCCACAGCAGAAGCGGUCACGUCGCAGCCCCUGUCAGAUUCUGGUGAAUCUGCGAAUUCUGCUAUAUAUCUC [U25G G73A],0.51
22,UAACAGGGGGCCACAGCAGAAGCGGUCACGUCGCAGCCCCUGUCAGAUUCUGGUGAAUCUGCGAAUUCUGCUGUGUAUCUC [U25G A75G],0.29
23,UAACAGGGGGCCACAGCAGAAGCGGUCACGUCGCAGCCCCUGUCAGAUUUUGGUGAAUCUGCGAAUUCUGCUGUAUAUCUC [U25G C50U],0.14

row,Variant,self-cleavage
1,UAACAGGGGGCCACAGCAGAAGCGGUCACGUCGCAGCCCCUGUCAGAUUCUGGUGAAUCUGCGAAUGCUGCUGUAUAUCUC [U25G U67G],0.19
2,UAACAGGGGGCCACAGCAGAAGCGGUCACGUCGCAGCCCCUGUCAGAUUCUGGUGAAUCUGCGAAUACUGCUGUAUAUCUC [U25G U67A],0.22
3,UAACAGGGGGCCACAGCAGAAGCGGUCACGUAGCAGCCCCUGUCAGAUUCUGGUGAAUCUGCGAAUUCUGCUGUAUAUCUC [U25G C32A],0.26
4,UAACAGGGGGCCACAGCAGAAGCGGUCACGUCGCAGCCUCUGUCAGAUUCUGGUGAAUCUGCGAAUUCUGCUGUAUAUCUC [U25G C39U],0.3
5,UAACAGGGGGCCACAGCAGAAGCGGCCACGUCGCAGCCCCUGUCAGAUUCUGGUGAAUCUGCGAAUUCUGCUGUAUAUCUC [U25G U26C],0.33
6,UAACAGGGGGCCACAGCAGAAGCGGUCACGUCGCAGCCCCUGUCAGAUUCUGGCGAAUCUGCGAAUUCUGCUGUAUAUCUC [U25G U54C],0.43
7,UAACAGGGGGCCACAGCAGAAGCGGUCACGUCGCAGCCCCUGUCAGAUUCUGGAGAAUCUGCGAAUUCUGCUGUAUAUCUC [U25G U54A],0.49
8,UAACAGGGGGCCACAGCAGAAGCGUACACGUCGCAGCCCCUGUCAGAUUCUGGUGAAUCUGCGAAUUCUGCUGUAUAUCUC [U26A],0.89
9,UAACAGGGGGCCACAGCAGAAGCGUACACGUCGCAGCCCCUGUCUGAUUCUGGUGAAUCUGCGAAUUCUGCUGUAUAUCUC [U26A A45U],0.42
10,UAACAGGGGGCCACAGCAGAAGCGUACACGUCGCAGCCCCUGUCGGAUUCUGGUGAAUCUGCGAAUUCUGCUGUAUAUCUC [U26A A45G],0.69
11,UAACAGGGGGCCACAGCAGAAGCGUACACGUCGCAGCCCCUGUCCGAUUCUGGUGAAUCUGCGAAUUCUGCUGUAUAUCUC [U26A A45C],0.21
12,UAACAGGGGGCCACAGCAGAAGCGGUCACGUCGCAGCCCCUGUCAGAUUCUGGUGAAUCUGCGAAUUCUGGUGUAUAUCUC [U25G C71G],0.16
13,UAACAGGGGGCCACAGCAGAAGCGGUCACGUCGCAGCCCCUGUCAGACUCUGGUGAAUCUGCGAAUUCUGCUGUAUAUCUC [U25G U48C],0.36
14,UAACAGGGGGCCACAGCAGAAGCGGUCACGUCGCAGCCCCCGUCAGAUUCUGGUGAAUCUGCGAAUUCUGCUGUAUAUCUC [U25G U41C],0.4
15,UAACAGGGGGCCACAGCAGAAGCGGUCACGUCGCAGCCCCAGUCAGAUUCUGGUGAAUCUGCGAAUUCUGCUGUAUAUCUC [U25G U41A],0.19
16,UAACAGGGGGCCACAGCAGAAGCGGUCACGUCGCAGCCCCGGUCAGAUUCUGGUGAAUCUGCGAAUUCUGCUGUAUAUCUC [U25G U41G],0.43
17,UAACAGGGGGCCACAGCAGAAGCGGUCACGUCGUAGCCCCUGUCAGAUUCUGGUGAAUCUGCGAAUUCUGCUGUAUAUCUC [U25G C34U],0.15
18,UAACAGGGGGCCACAGCAGAAGCGGUCACGUCGCAGCCCCUGUCAGAUUCUGGUGAAUCUGCGAGUUCUGCUGUAUAUCUC [U25G A65G],0.26
19,UAACAGGGGGCCACAGCAGAAGCGGUCACGUCGCAGCCCCUGUCAGAUUCUGGUGAAUCUGCGAUUUCUGCUGUAUAUCUC [U25G A65U],0.07
20,UAACAGGGGGCCACAGCAGAAGCGUACACGUCGCAGCCCCUGUCAGAUUCUGGUGAUUCUGCGAAUUCUGCUGUAUAUCUC [U26A A57U],0.62
21,UAACAGGGGGCCACAGCAGAAGCGUACACGUCGCAGCCCCUGUCAGAUUCUGGUGAGUCUGCGAAUUCUGCUGUAUAUCUC [U26A A57G],0.78
22,UAACAGGGGGCCACAGCAGAAGCGUACACGUCGCAGCCCCUGUCAGAUUCUGGUGGAUCUGCGAAUUCUGCUGUAUAUCUC [U26A A56G],0.68
23,UAACAGGGGGCCACAGCAGAAGCGUACACGUCGCAGCCCCUGUCAGAUUCUGGUGCAUCUGCGAAUUCUGCUGUAUAUCUC [U26A A56C],0.49

row,Variant,self-cleavage
1,UAACAGGGGGCCACAGCAGAAGCGUACACGUCGCAGCCCCUGUCAGAUUCUGGUGUAUCUGCGAAUUCUGCUGUAUAUCUC [U26A A56U],0.4
2,UAACAGGGGGCCACAGCAGAAGCGGUCACGUCGCAGCCCCUGUCAGAUUCUGGUGAAUCUGCGAAUUCUGCUGUAUUUCUC [U25G A77U],0.25
3,UAACAGGGGGCCACAGCAGAAGCGGUCACGUCGCAGCCCCUGUCAGAUUCUAGUGAAUCUGCGAAUUCUGCUGUAUAUCUC [U25G G52A],0.15
4,UAACAGGGGGCCACAGCAGAAGCGGUCACGUCGCAGCCCCUGUCAGAUUCUGGUGAAUCUGCGAAUUCUGCUGUACAUCUC [U25G U76C],0.52
5,UAACAGGGGGCCACAGCAGAAGCGGUCACGUCGCAGCCCCUGUCAGAUUCUGGUGAAACUGCGAAUUCUGCUGUAUAUCUC [U25G U58A],0.14
6,UAACAGGGGGCCACAGCAGAAGCGGUCACGUCGCAGCCCCUGUCAGAUUCUGGUGAACCUGCGAAUUCUGCUGUAUAUCUC [U25G U58C],0.2
7,UAACAGGGGGCCACAGCAGAAGCGGUCACGUCGCAGUCCCUGUCAGAUUCUGGUGAAUCUGCGAAUUCUGCUGUAUAUCUC [U25G C37U],0.09
8,UAACAGGGGGCCACAGCAGAAGCGGUCACGUCGCAGCCCCUGUCAGAUUCUGGUGAAUCUGCGAAUUCUGCUGUAUACCUC [U25G U78C],0.15
9,UAACAGGGGGCCACAGCAGAAGCGGUCACGUCGCAGCCCCUGUCAGAUUCUGGUGAAUCUGCGAAUUCUGCUGUAUAACUC [U25G U78A],0.12
10,UAACAGGGGGCCACAGCAGAAGCGGUCACGUCGCAGCCCCUGCCAGAUUCUGGUGAAUCUGCGAAUUCUGCUGUAUAUCUC [U25G U43C],0.34
11,UAACAGGGGGCCACAGCAGAAGCGGUCACGUCGCAGCCCCUGACAGAUUCUGGUGAAUCUGCGAAUUCUGCUGUAUAUCUC [U25G U43A],0.58
12,UAACAGGGGGCCACAGCAGAAGCGGUCACGUCGCAGCCCCUGUCAGAUUCUGGUGAGUCUGCGAAUUCUGCUGUAUAUCUC [U25G A57G],0.16
13,UAACAGGGGGCCACAGCAGAAGCGUACACGUCGCAGCCCCUGUCAGAUUCUGGUGAAUCUGCGCAUUCUGCUGUAUAUCUC [U26A A64C],0.5
14,UAACAGGGGGCCACAGCAGAAGCGGUCACGCCGCAGCCCCUGUCAGAUUCUGGUGAAUCUGCGAAUUCUGCUGUAUAUCUC [U25G U31C],0.19
15,UAACAGGGGGCCACAGCAGAAGCGGUCACGACGCAGCCCCUGUCAGAUUCUGGUGAAUCUGCGAAUUCUGCUGUAUAUCUC [U25G U31A],0.23
16,UAACAGGGGGCCACAGCAGAAGCGGUCACGUCGCAGCCCCUGUCAGAUUCUGGUGAAUCUGCGAACUCUGCUGUAUAUCUC [U25G U66C],0.23
17,UAACAGGGGGCCACAGCAGAAGCGGUCACGUCGCAGCCCCUGUCAGAUUCAGGUGAAUCUGCGAAUUCUGCUGUAUAUCUC [U25G U51A],0.3
18,UAACAGGGGGCCACAGCAGAAGCGGUCACGUCGCAGCCCCUGUCAGAUUCCGGUGAAUCUGCGAAUUCUGCUGUAUAUCUC [U25G U51C],0.4
19,UAACAGGGGGCCACAGCAGAAGCGGUCACGUCGCAGCCCCUGUCAGAUUCUGGUGAAUCUGCGAAUUCUGCAGUAUAUCUC [U25G U72A],0.21
20,UAACAGGGGGCCACAGCAGAAGCGGUCACGUCGCAGCCCCUGUCAGAUUCUGGUGAAUCUGCGAAUUCUGCCGUAUAUCUC [U25G U72C],0.26
21,UAACAGGGGGCCACAGCAGAAGCGGUCACGUCGCAGCCCCUGUCAGAUACUGGUGAAUCUGCGAAUUCUGCUGUAUAUCUC [U25G U49A],0.26
22,UAACAGGGGGCCACAGCAGAAGCGGUCACGUCGCAGCCCCUGUCAGAUCCUGGUGAAUCUGCGAAUUCUGCUGUAUAUCUC [U25G U49C],0.45
